Source: patent publication US20230203138A1

Biological target: SARS-CoV-2 spike trimer (S trimer), soluble ectodomain (SARS-CoV-2), P0DTC2
Assay: cryo-EM structure of Fab 2-4 with S trimer
Conditions: remark: other sources report otherwise

B1: Fab of antibody 2-4 (Fab, V domains shown)
VH: QVQLVQSGAEVKKPGASVKVSCKASGYTFTGYYMHWVRQAPGQGLEWMGWINPNSGGTNYTQMFQGRVTMTRDTSISTAYMEVSRLRSDDTAVYYCARDRSWAVVYYYMDVWGKGTTVTVSS
VL: QSALTQPPSASGSPGQSVTISCTGTSSDVGGYNYVSWYQQHPGKAPKLMIYEVSKRPSGVPDRFSGSKSGNTASLTVSGLQAEDEADYYCSSYAGSNNLVFGGGTKLTVL
buried surface area of the epitope on RBD: 751 A2
